Measurements published in patent US20130315910A1 (Xencor, published 2013).
Substitutions are numbered along the chain they refer to. Names and notes keep the numbering of the source.

B1: S267E/A327E (antibody, human IgG1, kappa)
heavy: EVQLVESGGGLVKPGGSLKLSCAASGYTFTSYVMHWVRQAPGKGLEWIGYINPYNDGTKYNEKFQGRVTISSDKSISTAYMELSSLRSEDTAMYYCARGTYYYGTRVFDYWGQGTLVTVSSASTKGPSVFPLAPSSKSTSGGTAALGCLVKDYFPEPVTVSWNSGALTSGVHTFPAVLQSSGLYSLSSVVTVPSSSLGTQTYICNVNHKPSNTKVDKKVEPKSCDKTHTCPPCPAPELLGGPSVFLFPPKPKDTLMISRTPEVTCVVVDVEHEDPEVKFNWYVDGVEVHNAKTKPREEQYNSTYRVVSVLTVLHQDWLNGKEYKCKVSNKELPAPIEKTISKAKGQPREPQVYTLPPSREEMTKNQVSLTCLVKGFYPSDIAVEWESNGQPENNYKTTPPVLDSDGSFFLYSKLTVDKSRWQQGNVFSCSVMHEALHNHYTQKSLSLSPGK
light: DIVMTQSPATLSLSPGERATLSCRSSKSLQNVNGNTYLYWFQQKPGQSPQLLIYRMSNLNSGVPDRFSGSGSGTEFTLTISSLEPEDFAVYYCMQHLEYPITFGAGTKLEIKRTVAAPSVFIFPPSDEQLKSGTASVVCLLNNFYPREAKVQWKVDNALQSGNSQESVTEQDSKDSTYSLSSTLTLSKADYEKHKVYACEVTHQGLSSPVTKSFNRGEC
notes: HuAM4G7 anti-CD19 IgG1 (m1) with these Fc substitutions, EU index; copies: 2 + 2
B2: anti-CD19 antibody HuAM4G7 IgG1 S267E/H268E (antibody)
heavy: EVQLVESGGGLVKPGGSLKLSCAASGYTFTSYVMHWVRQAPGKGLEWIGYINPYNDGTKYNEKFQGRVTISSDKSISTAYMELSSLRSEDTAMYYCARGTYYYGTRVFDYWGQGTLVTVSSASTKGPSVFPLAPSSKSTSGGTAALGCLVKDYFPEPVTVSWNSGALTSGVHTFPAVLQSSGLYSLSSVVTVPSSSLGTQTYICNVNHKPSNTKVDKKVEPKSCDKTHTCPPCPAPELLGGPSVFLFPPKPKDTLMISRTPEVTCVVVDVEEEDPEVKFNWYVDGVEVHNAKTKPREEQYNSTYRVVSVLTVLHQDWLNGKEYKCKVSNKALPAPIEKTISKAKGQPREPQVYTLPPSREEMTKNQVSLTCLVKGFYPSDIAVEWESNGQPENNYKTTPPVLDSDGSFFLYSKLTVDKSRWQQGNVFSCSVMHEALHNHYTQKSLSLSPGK
light: B1 light
notes: Positions in EU numbering; copies: 2 + 2
B3: V266M/S267E (antibody, human IgG1, kappa)
heavy: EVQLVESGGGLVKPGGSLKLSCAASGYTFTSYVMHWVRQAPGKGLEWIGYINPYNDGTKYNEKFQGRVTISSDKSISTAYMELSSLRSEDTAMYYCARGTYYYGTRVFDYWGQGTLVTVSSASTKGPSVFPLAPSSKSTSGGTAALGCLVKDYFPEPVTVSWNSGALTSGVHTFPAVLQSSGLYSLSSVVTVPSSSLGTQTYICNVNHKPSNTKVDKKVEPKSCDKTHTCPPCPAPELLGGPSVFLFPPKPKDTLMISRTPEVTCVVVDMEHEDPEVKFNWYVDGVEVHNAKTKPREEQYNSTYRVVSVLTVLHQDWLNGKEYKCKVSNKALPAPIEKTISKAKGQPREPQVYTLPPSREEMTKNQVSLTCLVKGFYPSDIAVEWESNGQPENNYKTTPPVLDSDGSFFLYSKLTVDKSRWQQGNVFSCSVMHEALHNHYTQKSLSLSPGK
light: B1 light
notes: as for B1
B4: L234D/G236N/S267E (antibody, human IgG1, kappa)
heavy: EVQLVESGGGLVKPGGSLKLSCAASGYTFTSYVMHWVRQAPGKGLEWIGYINPYNDGTKYNEKFQGRVTISSDKSISTAYMELSSLRSEDTAMYYCARGTYYYGTRVFDYWGQGTLVTVSSASTKGPSVFPLAPSSKSTSGGTAALGCLVKDYFPEPVTVSWNSGALTSGVHTFPAVLQSSGLYSLSSVVTVPSSSLGTQTYICNVNHKPSNTKVDKKVEPKSCDKTHTCPPCPAPEDLNGPSVFLFPPKPKDTLMISRTPEVTCVVVDVEHEDPEVKFNWYVDGVEVHNAKTKPREEQYNSTYRVVSVLTVLHQDWLNGKEYKCKVSNKALPAPIEKTISKAKGQPREPQVYTLPPSREEMTKNQVSLTCLVKGFYPSDIAVEWESNGQPENNYKTTPPVLDSDGSFFLYSKLTVDKSRWQQGNVFSCSVMHEALHNHYTQKSLSLSPGK
light: B1 light
notes: as for B1
B5: G236A/G237A (antibody, human IgG1, kappa)
heavy: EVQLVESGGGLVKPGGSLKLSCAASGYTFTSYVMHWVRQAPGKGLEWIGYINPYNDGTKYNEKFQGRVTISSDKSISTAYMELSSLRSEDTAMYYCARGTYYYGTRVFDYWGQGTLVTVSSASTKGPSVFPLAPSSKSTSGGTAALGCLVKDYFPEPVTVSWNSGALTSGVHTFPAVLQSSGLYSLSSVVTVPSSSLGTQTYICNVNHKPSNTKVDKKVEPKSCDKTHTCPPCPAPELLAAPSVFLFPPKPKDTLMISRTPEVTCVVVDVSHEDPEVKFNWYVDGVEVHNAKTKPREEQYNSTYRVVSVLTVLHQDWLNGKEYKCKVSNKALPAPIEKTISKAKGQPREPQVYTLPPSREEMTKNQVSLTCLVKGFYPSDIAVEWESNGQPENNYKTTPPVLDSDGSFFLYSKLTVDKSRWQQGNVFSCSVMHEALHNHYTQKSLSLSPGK
light: B1 light
notes: as for B1
B6: A327L (antibody, human IgG1, kappa)
heavy: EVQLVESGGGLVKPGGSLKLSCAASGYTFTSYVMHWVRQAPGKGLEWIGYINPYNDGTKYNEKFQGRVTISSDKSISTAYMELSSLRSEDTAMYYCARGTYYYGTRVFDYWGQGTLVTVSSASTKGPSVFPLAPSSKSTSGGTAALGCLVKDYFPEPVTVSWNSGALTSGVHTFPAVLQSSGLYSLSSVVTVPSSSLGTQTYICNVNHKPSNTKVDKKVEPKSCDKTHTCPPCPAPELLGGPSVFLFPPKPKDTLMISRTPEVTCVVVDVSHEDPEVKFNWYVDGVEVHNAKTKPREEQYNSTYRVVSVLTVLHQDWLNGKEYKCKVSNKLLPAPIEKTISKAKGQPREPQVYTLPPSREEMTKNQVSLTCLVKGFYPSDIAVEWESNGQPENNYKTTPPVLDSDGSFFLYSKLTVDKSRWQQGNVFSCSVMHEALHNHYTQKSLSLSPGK
light: B1 light
notes: HuAM4G7 anti-CD19 IgG1 (m1) with this Fc substitution, EU index; copies: 2 + 2
B7: G236S/G237A (antibody, human IgG1, kappa)
heavy: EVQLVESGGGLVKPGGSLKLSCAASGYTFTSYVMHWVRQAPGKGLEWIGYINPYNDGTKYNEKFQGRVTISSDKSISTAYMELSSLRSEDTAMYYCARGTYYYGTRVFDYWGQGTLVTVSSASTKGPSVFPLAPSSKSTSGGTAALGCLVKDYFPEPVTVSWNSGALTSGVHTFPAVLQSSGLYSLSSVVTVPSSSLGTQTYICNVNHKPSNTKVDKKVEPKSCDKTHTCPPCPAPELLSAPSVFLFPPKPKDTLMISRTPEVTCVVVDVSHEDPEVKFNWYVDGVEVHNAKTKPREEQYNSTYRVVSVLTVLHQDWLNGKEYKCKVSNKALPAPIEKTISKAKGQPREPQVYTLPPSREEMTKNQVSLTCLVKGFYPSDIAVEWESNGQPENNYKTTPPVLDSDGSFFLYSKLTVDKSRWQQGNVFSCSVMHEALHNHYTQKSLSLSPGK
light: B1 light
notes: as for B1
B8: S267D (antibody, human IgG1, kappa)
heavy: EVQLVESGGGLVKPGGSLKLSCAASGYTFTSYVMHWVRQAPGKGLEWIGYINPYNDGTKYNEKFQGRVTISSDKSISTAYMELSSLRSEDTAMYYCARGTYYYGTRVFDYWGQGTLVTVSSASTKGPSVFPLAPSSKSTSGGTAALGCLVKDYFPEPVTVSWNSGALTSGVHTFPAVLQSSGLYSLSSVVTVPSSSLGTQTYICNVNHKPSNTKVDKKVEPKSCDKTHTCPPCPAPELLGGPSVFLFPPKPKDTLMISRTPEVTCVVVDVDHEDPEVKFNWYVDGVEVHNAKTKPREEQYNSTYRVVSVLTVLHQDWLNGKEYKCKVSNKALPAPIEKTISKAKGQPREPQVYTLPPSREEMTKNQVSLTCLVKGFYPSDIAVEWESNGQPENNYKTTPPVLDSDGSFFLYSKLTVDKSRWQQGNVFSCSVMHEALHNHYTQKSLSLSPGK
light: B1 light
notes: as for B6

molecular target: T1, human FcγRIIb on cells (transfected HEK293T cells; primary human B cells) (human, UniProt P31994 43-310); test: flow cytometry on FcγRIIb-transfected 293T cells [middle left panel]
T1 construct: whole, on cells; also called CD32b
T1 sequence (looked up): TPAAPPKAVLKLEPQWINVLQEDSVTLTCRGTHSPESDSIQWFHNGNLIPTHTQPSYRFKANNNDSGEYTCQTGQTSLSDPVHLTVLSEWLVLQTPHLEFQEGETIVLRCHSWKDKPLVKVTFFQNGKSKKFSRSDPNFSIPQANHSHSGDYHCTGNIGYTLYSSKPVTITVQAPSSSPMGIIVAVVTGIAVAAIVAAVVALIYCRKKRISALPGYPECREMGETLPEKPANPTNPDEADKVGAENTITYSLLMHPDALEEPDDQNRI
Procedure: (§1) In order to validate the Biacore data and evaluate receptor binding of the variants on the cell surface, binding of select antibodies to cells expressing FcγRIIb was measured. […] HEK293T cells in DMEM with 10% FBS were transfected with human FcγRIIb cDNA in pCMV6 expression vector (Origene Technologies, Rockville, Md.), cultured for 3 days, harvested, washed twice in PBS, resuspended in PBS with 0.1% BSA (PBS/BSA), and aliquoted at 2×10^5 cells per well into 96-well microtiter plates. Fc variant antibodies were serially diluted in PBS/BSA then added to the cells and incubated with mixing for 1 h at room temperature. After extensive washing with PBS/BSA, phycoerythrin (PE)-labeled anti-human-Fab-specific goat F(ab′)2 fragment was added for detection. Cells were incubated for 30 min at room temperature, washed, and resuspended in PBS/BSA. Binding was evaluated using a FACSCanto II flow cytometer (BD Biosciences, San Jose, Calif.), and the mean fluorescence intensity (MFI) was plotted as a function of antibody concentration using Graph Pad Prism software (GraphPad Software, San Diego, Calif.) from which half-maximal binding (EC50) values were determined by sigmoidal dose response modeling.
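Wherever Fold vs WT IgG1 (off-rate) is given: fold improvement over WT IgG1 so higher means slower dissociation than WT.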

Point of comparison: B2, “EC50 (read off the curve)” value ~10 ng/mL. Against it:
- B1 — the same, ~10 ng/mL
- B3 — the same, ~10 ng/mL

molecular target: T2, cynoFcγRIIb (Macaca fascicularis, UniProt A0A140HDP4); test: SPR, Kd
T2 construct: extracellular region, C-terminal His- and GST-tag; also called cynomolgus monkey FcγRIIb
T2 sequence (receptor extracellular region): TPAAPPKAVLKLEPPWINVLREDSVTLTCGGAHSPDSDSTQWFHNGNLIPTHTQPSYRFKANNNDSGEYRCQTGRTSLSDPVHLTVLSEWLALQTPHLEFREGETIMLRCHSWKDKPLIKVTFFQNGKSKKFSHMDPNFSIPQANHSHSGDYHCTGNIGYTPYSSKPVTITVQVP
Procedure: (§2) Variants were screened for receptor affinity using Biacore™ technology, also referred to as Biacore herein, a surface plasmon resonance (SPR) based technology for studying biomolecular interactions in real time. SPR measurements were performed using a Biacore 3000 instrument (Biacore, Piscataway, N.J.). A protein A/G (Pierce Biotechnology) CM5 biosensor chip (Biacore) was generated using a standard primary amine coupling protocol. All measurements were performed using HBS-EP buffer (10 mM HEPES pH 7.4, 0.15 M NaCl, 3 mM EDTA, 0.005% vol/vol surfactant P20, Biacore). Antibodies at 20 nM or 50 nM in HBS-EP buffer were immobilized on the protein A/G surface and FcγRs were injected. After each cycle, the surface was regenerated by injecting glycine buffer (10 mM, pH 1.5). Data were processed by zeroing time and response before the injection of FcγR and by subtracting appropriate nonspecific signals (response of reference channel and injection of running buffer). Kinetic analyses were performed by global fitting of binding data with a 1:1 Langmuir binding model using BIAevaluation software (Biacore).
(§3) Variant antibodies were tested for their affinity to mouse or cynologous monkey FcγRs using Biacore SPR as described above. Specifically, antibodies were first immobilized on a protein A/G chip to high density, and then followed by injections of the extracellular domain of the mouse or cynologous monkey FcγR of interest. Both association and dissociation phases were tracked in real time using the Biacore technology.

B4: no binding.
B5: no binding.
B6: no binding.
B7: no binding.

molecular target: T3, mFcγRIIb (Mus musculus, UniProt P08101); test: SPR, Kd
T3 construct: extracellular region, C-terminal His- and GST-tag; also called mouse FcγRII
T3 sequence (receptor extracellular region, looked up): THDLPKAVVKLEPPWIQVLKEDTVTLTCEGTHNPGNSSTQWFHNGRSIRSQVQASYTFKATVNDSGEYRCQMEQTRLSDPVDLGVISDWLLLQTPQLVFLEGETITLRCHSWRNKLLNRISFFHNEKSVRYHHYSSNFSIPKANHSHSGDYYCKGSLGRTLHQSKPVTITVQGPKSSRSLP
Procedure: as §2, §3

B4: no binding.
B5: no binding.
B6: no binding.
B7: no binding.

molecular target: T4, human FcγRIIa (131H), His- and GST-tagged (human, UniProt P12318 34-217); test: SPR
T4 construct: also called H131 FcγRIIa; HIIa; not shown: 6xHis and GST tags of the pTT5 vector
T4 sequence (looked up): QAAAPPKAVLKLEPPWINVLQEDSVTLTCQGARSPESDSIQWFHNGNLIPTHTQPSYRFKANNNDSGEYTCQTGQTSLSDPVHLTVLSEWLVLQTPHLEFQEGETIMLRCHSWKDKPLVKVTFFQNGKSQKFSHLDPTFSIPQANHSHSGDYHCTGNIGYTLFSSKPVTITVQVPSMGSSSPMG

Point of comparison: B2, “Fold vs WT IgG1” value 0.765 fold. Against it:
- B1 — higher, 2.66 fold
- B8 — higher, 0.93 fold
- B3 — higher, 10.9 fold

Point of comparison: B8, Kd 695 nM. Against it:
- B1 — 2.9-fold lower, 243 nM
- B2 — within 1.5-fold, 845 nM
- B3 — 12-fold lower, 59.2 nM

molecular target: T5, human FcγRIIIa (158V), His- and GST-tagged (human, UniProt P08637 17-208); test: SPR
T5 construct: also called V158 FcγRIIIa; VIIIa; not shown: 6xHis and GST tags of the pTT5 vector
T5 sequence (P08637 17-208 F176V): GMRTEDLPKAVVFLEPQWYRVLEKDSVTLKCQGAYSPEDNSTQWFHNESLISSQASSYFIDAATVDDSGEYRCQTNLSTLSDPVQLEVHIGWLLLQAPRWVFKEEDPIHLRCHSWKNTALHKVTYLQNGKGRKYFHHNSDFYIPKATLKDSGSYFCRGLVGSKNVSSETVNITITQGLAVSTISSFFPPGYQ

Point of comparison: B3, “Fold vs WT IgG1” value 0.0448 fold. Against it:
- B1 — lower, 0.00894 fold
- B2 — higher, 3.15 fold
- B8 — higher, 1.51 fold

Point of comparison: B1, Kd 21400 nM. Against it:
- B2 — 350-fold lower, 60.8 nM
- B8 — 170-fold lower, 127 nM
- B3 — 5-fold lower, 4270 nM

molecular target: T6, human FcγRIIb receptor protein (R&D Systems) (human, UniProt P31994 46-217); test: SPR
T6 construct: Bought protein injected over captured antibody in Biacore; also called CD32b
T6 sequence (looked up): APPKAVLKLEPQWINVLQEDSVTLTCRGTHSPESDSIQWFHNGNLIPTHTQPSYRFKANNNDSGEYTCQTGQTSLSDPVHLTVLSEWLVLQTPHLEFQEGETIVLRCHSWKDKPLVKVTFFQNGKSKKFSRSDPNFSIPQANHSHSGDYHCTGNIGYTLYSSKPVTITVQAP

Point of comparison: B2, “Fold vs WT IgG1” value 40.6 fold. Against it:
- B4 — lower, 5.11 fold
- B5 — lower, 0.0578 fold
- B1 — lower, 30.9 fold
- B7 — lower, 0.0797 fold
- B8 — lower, 4.45 fold
- B3 — lower, 29.2 fold

Point of comparison: B5, Kd 25400 nM. Against it:
- B4 — 89-fold lower, 287 nM
- B1 — 530-fold lower, 47.5 nM
- B2 — 700-fold lower, 36.1 nM
- B7 — within 1.5-fold, 18400 nM
- B8 — 77-fold lower, 330 nM
- B3 — 510-fold lower, 50.2 nM

B6: no binding.

molecular target: T7, human FcγRI receptor protein (R&D Systems) (human, UniProt P12314 16-288); test: SPR
T7 construct: also called soluble FcγRI; solFcγRI
T7 sequence (P12314 16-288 limits assumed): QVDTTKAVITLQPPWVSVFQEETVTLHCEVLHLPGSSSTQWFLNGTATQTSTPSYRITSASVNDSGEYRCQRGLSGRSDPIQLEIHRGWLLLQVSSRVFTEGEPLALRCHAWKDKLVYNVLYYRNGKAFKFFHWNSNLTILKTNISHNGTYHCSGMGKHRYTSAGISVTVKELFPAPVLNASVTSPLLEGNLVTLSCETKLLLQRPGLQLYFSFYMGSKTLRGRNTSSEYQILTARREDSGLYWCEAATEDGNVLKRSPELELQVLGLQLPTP

Point of comparison: B2, “Fold vs WT IgG1” value 3.52 fold. Against it:
- B1 — lower, 2.3 fold
- B8 — lower, 2.11 fold
- B3 — lower, 1.98 fold

Point of comparison: B3, Kd 0.166 nM. Against it:
- B1 — within 1.5-fold, 0.143 nM
- B2 — 1.8-fold lower, 0.0935 nM
- B8 — within 1.5-fold, 0.156 nM

molecular target: T8, human FcγRIIa (131R), His- and GST-tagged (human, UniProt P12318 34-217); test: SPR
T8 construct: Expressed in HEK293T cells, purified by nickel chromatography; also called R131 FcγRIIa; not shown: 6xHis and GST tags of the pTT5 vector
T8 sequence (looked up): T4 sequence (looked up) with H134R

Point of comparison: B8, “Fold vs WT IgG1” value 8.99 fold. Against it:
- B4 — lower, 0.728 fold
- B1 — higher, 29.3 fold
- B2 — higher, 41.7 fold
- B3 — higher, 30.7 fold

Point of comparison: B3, Kd 28 nM. Against it:
- B4 — 42-fold higher, 1180 nM
- B1 — within 1.5-fold, 29.3 nM
- B2 — within 1.5-fold, 20.6 nM
- B8 — 3.4-fold higher, 95.5 nM

Molecular target: T9, mFcγRIV
T9 construct: also called mouse FcγRIV; not shown: C-terminal His and GST tags (named only on our card)
T9 chain: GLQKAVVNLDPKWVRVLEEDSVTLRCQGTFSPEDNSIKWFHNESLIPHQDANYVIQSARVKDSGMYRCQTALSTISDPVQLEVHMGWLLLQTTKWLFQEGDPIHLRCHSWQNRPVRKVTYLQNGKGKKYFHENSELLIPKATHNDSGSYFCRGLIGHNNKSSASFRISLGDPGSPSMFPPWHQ
Test: SPR

Point of comparison: B1, “Fold vs WT IgG1 (off-rate)” value 1.04 fold. Against it:
- B8 — higher, 1.27 fold

molecular target: T2, cynoFcγRIIb; test: SPR

Point of comparison: B8, “Fold vs WT IgG1 (off-rate)” value 1.03 fold. Against it:
- B1 — the same, 1.03 fold

molecular target: T3, mFcγRIIb; test: SPR

Point of comparison: B8, “Fold vs WT IgG1 (off-rate)” value 1.95 fold. Against it:
- B1 — higher, 2.8 fold

molecular target: T10, cynoFcγRIIIa (Macaca fascicularis, UniProt Q8SPW2); test: SPR
T10 construct: extracellular region, C-terminal His- and GST-tag; also called cynomolgus monkey FcγRIIIa
T10 sequence (Q8SPW2 17-208): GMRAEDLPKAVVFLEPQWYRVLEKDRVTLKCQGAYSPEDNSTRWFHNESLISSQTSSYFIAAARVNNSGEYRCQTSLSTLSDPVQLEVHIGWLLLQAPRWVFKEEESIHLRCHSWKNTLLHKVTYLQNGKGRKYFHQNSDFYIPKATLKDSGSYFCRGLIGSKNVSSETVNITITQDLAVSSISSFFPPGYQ

Point of comparison: B1, “Fold vs WT IgG1 (off-rate)” value 0.465 fold. Against it:
- B8 — higher, 1.27 fold

molecular target: T1, human FcγRIIb on cells (transfected …); test: flow cytometry on FcγRIIb-transfected 293T cells [top left panel]
Procedure: as §1

B8 was tested, and the “EC50 (read off the curve)” value was about 30 ng/mL.
